experiment: soluble on expression in E. coli; label from the status in PepcDB or PDB records

| Sequence | soluble on expression in E. coli |
| --- | --- |
| TVRLMVDLRHHAAMLEEENDERTRAEQKLAETNVFLNSVVDGVAEPMVVVGLDRRVIMTNRAARDFFQISDVGSDEACHRLIHHRDTPCVREEGMQCPLLDVRTAKRPVIATQEHRDRSGDKRVVEVMTSPLLGSD | not soluble |
| VAATKASTATDEPVKRTATKSPAASASGAKTGAKRTAAKSASGSPPAKRATKPAARSVKPASAPQDTTTSTIPKRKTRAAAKSAAAKAPSARGHATKPRAPKDAQHEAATDPEDALDSVEELDAEPDLDVEPGEDLDLDAADLNLDDLEDDVAPDADDDLDSGDDEDHEDLEAEAAVAPGQTADDDEEIAEPTEKDKASGDFVWDEDESEALRQARKDAELTASADSVRAYLKQIGKVALLNAEEEVELAKRIEAGLYATQLMTELSERGEKLPAAQRRDMMWICRDGDRAKNHLLEANLRLVVSLAKRYTGRGMAFLDLIQEGNLGLIRAVEKFDYTKGYKFSTYATWWIRQAITRAMADQARTIRIPVHMVEVINKLGRIQRELLQDLGREPTPEELAKEMDITPEKVLEIQQYAREPISLDQTIGDEGDSQLGDFIEDSEAVVAVDAVSFTLLQDQLQSVLDTLSEREAGVVRLRFGLTDGQPRTLDEIGQVYGVTRERIRQIESKTMSKLRHPSRSQVLRDYLD | soluble |
| VACMIPAPAYHPDPRFQALGGEFADPVEPADFPETVLRFRNDRAAATVGLETLDDRAWLRHFGRFEPLPDNQTRPLAMRYHGHQFRVYNPDLGDGRGFLFGQLREAGTGRLLDLATKGSGQTPWSRAGDGRLTLKGGVREILAASFLEALGVPTSRWCGL | soluble |
| VADFRYNVGLNLSAVKNKAVKFSGDGPIQTGGFNSDQIIRNEDGGLISRFYGYVADGIFQNWDEVYAHTNENGKLVQSNAQPGDIRFKDLNHDGVLDENDKTWIGNPYPDLMVGLNLGFSYKNIDFTANFYGTFGNDIFNKTKGLYSGVSGQNVWTGTLQKAWHGEGTSNDIPRLSYNDLNQNYTRVSSFFVEDGSYMRCKLLQVGYTLPKKWLNGTELRLSLSAQNPFTITSYSGMDPERPQIGKDGSVIETGIDGIAYPNPRTFLFGIDLKF | not soluble |
| VAFTEKQDALVSSSFEAFKANIPQYSVVFYTSILEKAPAAKDLFSFLANGVDPTNPKLTGHAEKLFALVRDSAGQLKASGTVVADAALGSVHAQKAVTDPQFVVVKEALLKTIKAAVGDKWSDELSRAWEVAYDELAAAIKKA | soluble |
| VALAATRAFYWIEAQSPDAATAFAQRVFDLYFSDRLDTASPEAVSRLGPEVGLEPEALLAGIADPALKETVRKIGEDAVARGIFGSPFFLVDDEPFWGWDRMEMMAEWIRTGGW | not soluble |
| VALESATVGSMHERTVRARTATGIVEGFTRDGVHRWRSIPYARAPVGSLRFRAPQPAQPWPGVRHCHTFANCAPQQRRYTVMGIGRYQTRSEDCLTLNVVTPEEPATQPLPVMVFIHGGGYILGSSATPIYDGAALARRGCVYVSVNYRLGALGCLDLSSLSTPQITLDSNVYLRDLVLALRWVHDNIAEFGGDPGNVTIFGESAGAHITATLLAVPAAKGLFARAISESPAAGMVRSREVAAEFAARFANLIGARTQDAANALMQASPAQLVEAQHHLIRQGMRKRLGAFPIGPVFGDDYLPMDPVEAMRSGRVHAVPLIVGTNAEEGRLFTRFLGMLPTNEPMVEELLSGMKPADRERITAAYPNYPAPSACIQLGGDFAFSSAAWQIAEAHGANAPTYLYRYDYAPRTLRWSGFGATHATELFAVFDIYRTRFGALLTAAADRRAALRVSNEVQRRWRCFSQIGVPGDDWPAYTQDDRAVLVFDRRCRIEFDPHQHRRIAWDGFSLAN | not soluble |
| VAVGARCVCGRPLAVVTRPLLPGGVPFPTTCYLTGPEAVKAISHIEAEGKMKEYNDMLAENEDLRAGYERAHELYLAFRHEIALALEDSEEHIEGTSAGGMPVRVKCLHALLAQTLVMGEGANPIGDMALSAIKHEFDPAVCRCAVENEE | not soluble |
| VCSCRLVFCRRTELRVGNCLIGGVSFTYCCTRV | soluble |
| VDRYNDQASGRALIEIRLCNERATPMPIPIGLWMFQTKLHVNAGGADVFLPVCDVLEQDLAERDEEVRQLNLQYRNRLEYAIGRTCSAAWSVNGSRRPSAVWTTWLPVAETPHTRARSVENALLSMDSRGGVT | not soluble |
| VDTHSEVLIFEVIPADDFLQQQLQITVQDRVWHVKRVRYRKQKPMALEETWMPLALFPDLTWQVMENSKYHFIEEVKKMVIDRSEQEIIPLMPTEEMSRLLNISQTKPILEKVSRGYLVDGRVFEYSRNAFNT | soluble |

— the DeepSol protein solubility set
